# Positions count from the first letter of the chain named. Numbers in names are those of the source.
# B1: H341N: modified GLD: SEQ ID NO: 1 with substitution H341N (protein, listed as Aspergillus terreus)
# chain: MLGKLSFLSALSLAVAAPLSNSTSAKYDYIVIGGGTSGLAVANRLSEDPNVNVLILEAGGSVWNNPNVTNVDGYGLAFGSDIDWQYQSVNQPYGGNLSQVLRAGKALGGTSTINGMAYTRAEDVQIDAWETIGNTGWTWKNLFPYYRKSENFTVPTKSQTSLGASYEAGAHGHEGPLDVAFTQIESNNLTTYLNRTFQGMGLPWTEDVNGGKMRGFNLYPSTVNLEEYVREDAARAYYWPYKSRPNLHVLLNTFANRIVWDGEAHDGHITASGVEITSRNGTVRVINAEKEVIVSAGALKSPAILELSGIGNPSVLDKHNIPVKVNLPTVGENLQDQVNSNMDASGNTSISGTKAVSYPDVYDVFGDEAESVAKQIRANLKQYAADTAKANGNIMKAADLERLFEVQYDLIFKGRVPIAEVLNYPGSATSVFAEFWALLPFARGSVHIGSSNPAEFPVINPNYFMLDWDAKSYVAVAKYIRRSFESYPLSSIVKESTPGYDVIPRNASEQSWKEWVFDKNYRSNFHPVGTAAMMPREIGGVVDERLNVYGTTNVRVVDASVLPFQVCGHLVSTLYAVAERAADLIKADAGRR
# modifications: SIGNAL (1)..(19)
# B2: D343L: modified GLD: SEQ ID NO: 1 with substitution D343L (protein, listed as Aspergillus terreus)
# chain: B1 chain with N341H, D343L
# modifications: SIGNAL (1)..(19)
# B3: H341Q: modified GLD: SEQ ID NO: 1 with substitution H341Q (protein, listed as Aspergillus terreus)
# chain: B1 chain with N341Q
# modifications: SIGNAL (1)..(19)
# B4: D343E: modified GLD: SEQ ID NO: 1 with substitution D343E (protein, listed as Aspergillus terreus)
# chain: B1 chain with N341H, D343E
# modifications: SIGNAL (1)..(19)
# B5: D343M: modified GLD: SEQ ID NO: 1 with substitution D343M (protein, listed as Aspergillus terreus)
# chain: B1 chain with N341H, D343M
# modifications: SIGNAL (1)..(19)
# B6: D343S: modified GLD: SEQ ID NO: 1 with substitution D343S (protein, listed as Aspergillus terreus)
# chain: B1 chain with N341H, D343S
# modifications: SIGNAL (1)..(19)
# B7: D343K: modified GLD: SEQ ID NO: 1 with substitution D343K (protein, listed as Aspergillus terreus)
# chain: B1 chain with N341H, D343K
# modifications: SIGNAL (1)..(19)
# B8: D343H: modified GLD: SEQ ID NO: 1 with substitution D343H (protein, listed as Aspergillus terreus)
# chain: B1 chain with N341H, D343H
# modifications: SIGNAL (1)..(19)
# B9: H341V: modified GLD: SEQ ID NO: 1 with substitution H341V (protein, listed as Aspergillus terreus)
# chain: B1 chain with N341V
# modifications: SIGNAL (1)..(19)
# B10: H341R: modified GLD: SEQ ID NO: 1 with substitution H341R (protein, listed as Aspergillus terreus)
# chain: B1 chain with N341R
# modifications: SIGNAL (1)..(19)
# B11: H341P: modified GLD: SEQ ID NO: 1 with substitution H341P (protein, listed as Aspergillus terreus)
# chain: B1 chain with N341P
# modifications: SIGNAL (1)..(19)
# B12: D343A: modified GLD: SEQ ID NO: 1 with substitution D343A (protein, listed as Aspergillus terreus)
# chain: B1 chain with N341H, D343A
# modifications: SIGNAL (1)..(19)
# B13: D343V: modified GLD: SEQ ID NO: 1 with substitution D343V (protein, listed as Aspergillus terreus)
# chain: B1 chain with N341H, D343V
# modifications: SIGNAL (1)..(19)
# B14: D343F: modified GLD: SEQ ID NO: 1 with substitution D343F (protein, listed as Aspergillus terreus)
# chain: B1 chain with N341H, D343F
# modifications: SIGNAL (1)..(19)
# B15: D343Q: modified GLD: SEQ ID NO: 1 with substitution D343Q (protein, listed as Aspergillus terreus)
# chain: B1 chain with N341H, D343Q
# modifications: SIGNAL (1)..(19)
# B16: H341S: modified GLD: SEQ ID NO: 1 with substitution H341S (protein, listed as Aspergillus terreus)
# chain: B1 chain with N341S
# modifications: SIGNAL (1)..(19)
# B17: H341Y: modified GLD: SEQ ID NO: 1 with substitution H341Y (protein, listed as Aspergillus terreus)
# chain: B1 chain with N341Y
# modifications: SIGNAL (1)..(19)
# B18: A298I: modified GLD: SEQ ID NO: 1 with substitution A298I (protein, listed as Aspergillus terreus)
# chain: B1 chain with A298I, N341H
# modifications: SIGNAL (1)..(19)
# B19: D343Y: modified GLD: SEQ ID NO: 1 with substitution D343Y (protein, listed as Aspergillus terreus)
# chain: B1 chain with N341H, D343Y
# modifications: SIGNAL (1)..(19)
# B20: D343W: modified GLD: SEQ ID NO: 1 with substitution D343W (protein, listed as Aspergillus terreus)
# chain: B1 chain with N341H, D343W
# modifications: SIGNAL (1)..(19)
# B21: D343I: modified GLD: SEQ ID NO: 1 with substitution D343I (protein, listed as Aspergillus terreus)
# chain: B1 chain with N341H, D343I
# modifications: SIGNAL (1)..(19)
# B22: D343R: modified GLD: SEQ ID NO: 1 with substitution D343R (protein, listed as Aspergillus terreus)
# chain: B1 chain with N341H, D343R
# modifications: SIGNAL (1)..(19)
# Experiment: Relative enzymatic activity of GLD (DCIP/1-m-PMS, plate reader, yeast culture supernatant) with 1,10-phenanthroline present
# Assay type: biochemical
# Settings: site-specific mutants, inhibitor final concentration 1 mM
# Protocol: (§1) The susceptibility defined in the present specification is evaluated in terms of a relative activity that is determined in a system wherein the inhibitor coexists or not. The relative activity is derived from a relative value (%) of an enzymatic activity (a sample value) obtained with the addition of the inhibitor in the determination of the enzymatic activity described in the present specification as compared with an enzymatic activity (a blank value) as “100%” obtained without the addition of the inhibitor in the same determination. Thus, the higher the relative activity is, the less the susceptibility to the inhibitor is (or the more the susceptibility to the inhibitor is reduced), vice versa.
# (§2) The enzymatic activity is determined in the following manner in Examples 3 and 6 wherein a plate reader (Japan Molecular Device Corporation, SpectraMax Plus384) is used. Thus, culture supernatant that had been diluted in advance with an appropriate magnification is added to a 96-well microplate with an amount of 100 μl per well. A reagent for the determination of the enzymatic activity comprising phosphate buffer (pH 7.0), 1.0 M D-glucose, 3 mM DCIP, 3 mM 1-m-PMS and methanol with a volume ratio of 0.1:1:0.14:0.2:0.06 is added to the 96-well microplate with an amount of 100 μl per well, and a change in the absorbance of DCIP at 600 nm (ΔABS/min) is then determined. The enzymatic activity can be calculated by conversion in proportion to a change in the absorbance of an enzyme solution for which the enzymatic activity has already been known by the above-mentioned activity determination procedure using the spectrophotometer.
# (§3) In the following examples, a value of the enzymatic activity determined by the spectrometer or plate reader using the above reagent composition is considered as a blank value. On the other hand, a sample value is determined using a methanol solution comprising the inhibitor such as 1,10-phenanthroline or proflavin hydrochloride at a final concentration of 1 mM instead of the methanol. Enzymatic activity (unit/mL)=(−ΔABS/16.3)×3.0/0.05×(Dilution ratio of enzyme) [Equation 1]
# Into each well of a 96-well microplate (manufactured by Nunc, Inc.), a YPD medium containing 125 μL of 1.0% (w/v) yeast extract (manufactured by BD), 2.0% (w/v) tryptone (manufactured by BD), 2.0% (w/v) glucose (manufactured by Wako Pure Chemical Industries, Ltd.) was dispensed, and the transformant colonies obtained in Example 2 were inoculated thereinto one by one.
# After shaking culture at 30° C. and 1,000 rpm for 24 hours, the culture mixture was centrifuged and the supernatant was collected.
# According to the above-mentioned method for the determination of enzymatic activity, a blank value and a sample value were determined using a plate reader, and the relative activity (%) was obtained by dividing the sample value by the blank value.
row,Molecule,"Relative Activity [%] 1,10-Phenanthroline [%]"
1,B1,93.3
2,B2,100.5
3,B3,97.5
4,B4,61.4
5,B5,91.2
6,B6,70.1
7,B7,95.9
8,B8,87.5
9,B9,96.1
10,B10,78.6
11,B11,88.3
12,B12,72.5
13,B13,96.7
14,B14,95.3
15,B15,86.2
16,B16,90.4
17,B17,93.6
18,B18,73.7
19,B19,96.2
20,B20,94.2
21,B21,88.6
22,B22,80.7

# Experiment: Relative enzymatic activity of GLD (DCIP/1-m-PMS, plate reader, yeast culture supernatant) with proflavin hydrochloride present
# Assay type: biochemical
# Settings: site-specific mutants, inhibitor final concentration 1 mM
# Protocol: as §1, §2, §3
row,Molecule,Relative Activity [%] Proflavin hydrochloride [%]
1,B1,81.5
2,B2,73.2
3,B3,68.1
4,B4,58.2
5,B5,52.9
6,B6,48.3
7,B7,51.8
8,B8,62.8
9,B9,71.4
10,B10,69.5
11,B11,43.2
12,B12,51.2
13,B13,67.7
14,B14,65.7
15,B15,47.0
16,B16,76.6
17,B17,77.8
18,B18,43.8
19,B19,55.6
20,B20,57.9
21,B21,71.5
22,B22,37.9
